Laboratory results published in patent US12467053 (BIOMOLECULAR, dated 2025).

Experiments:
TNF-alpha (R&D Systems) [1] = biological target: T1, TNF-alpha (R&D Systems) (UniProt P01375 77-233); assay: Biacore T-100 SPR, response against TNF-alpha concentration. Symmetroadhesin amine-coupled to a CM-5 chip.
T1 construct: also called tumor necrosis factor α; TNF-α

TNF-alpha (R&D Systems) [2] = biological target: T1, TNF-alpha (R&D Systems); assay: Biacore T-100 SPR, response against TNF-alpha concentration. Symmetroadhesin thiol-coupled to a CM-5 chip.

T1 sequence (P01375 77-233 limits assumed): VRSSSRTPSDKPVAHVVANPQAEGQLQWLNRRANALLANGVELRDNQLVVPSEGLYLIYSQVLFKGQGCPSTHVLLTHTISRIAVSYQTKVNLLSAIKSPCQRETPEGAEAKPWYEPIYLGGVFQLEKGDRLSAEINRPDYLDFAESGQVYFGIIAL

B1: TNR1B symmetroadhesin of FIG. 44A (iv) (human TNR1B extracellular domain with a C-terminal-X-terminus) (receptor)
chain: LPAQVAFTPYAPEPGSTCRLREYYDQTAQMCCSKCSPGQHAKVFCTKTSDTVCDSCEDSTYTQLWNWVPECLSCGSRCSSDQVETQACTREQNRICTCRPGWYCALSKQEGCRLCAPLRKCRPGFGVARPGTETSDVVCKPCAPGTFSNTTSSTDICRPHQICNVVAIPGNASMDAVCTSTSPTRSMAPGAVHLPQPVSTRSQHTQPTPEPSTAPSTSFLLPMGPSPPAEGSTGDGC
modifications: C-terminal X residue (residue 237) added by native chemical ligation; cysteine in the material made (cleavage/elution with cysteine)
notes: The same molecule was immobilised by amine chemistry and by thiol chemistry; also called TNR1B-X; TNR2-X
EC50 (read off the curve) (TNF-alpha (R&D Systems) [1]): ~4 nM | EC50 (read off the curve) (TNF-alpha (R&D Systems) [2]): ~0.9 nM
